For this series, the system named is Escherichia coli TOP10. The experiment in a line: shrunken log2 fold change of peptide-encoding DNA abundance (4.5 h post-induction vs induction); higher = less antimicrobial activity (less host growth inhibition). As to conditions: time post-induction: 4.5 h; library: site-saturation at positions 5, 18, 19, 20.
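Note: peptides expressed intracellularly from a pBAD plasmid library in pooled LB shake-flask culture, induced with 0.3% L-arabinose, DNA abundance read by NGS, three biological replicates, DESeq2 with apeglm shrinkage.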

For RRIRPRPPRLPRPRPRPFLAPRP, the “shrunken log2 fold change” value stood at 0.0316. Next, RRIRHRPPRLPRPRPRPVPSPRP: 0.0513. For RRIRVRPPRLPRPRPRPCGEPRP, the “shrunken log2 fold change” value is -0.256.

Regarding RRIRDRPPRLPRPRPRPCHHPRP, the “shrunken log2 fold change” value was -0.0426. With RRIRKRPPRLPRPRPRPAGHPRP, the “shrunken log2 fold change” value is 0.0606. Next, RRIRSRPPRLPRPRPRPRTQPRP: 0.107; RRIRFRPPRLPRPRPRPKCCPRP: -0.149; RRIRERPPRLPRPRPRPWDEPRP: 0.0271. Turning to RRIRYRPPRLPRPRPRPTLSPRP, the “shrunken log2 fold change” value is -0.0535. As for RRIRGRPPRLPRPRPRPTSQPRP, the “shrunken log2 fold change” value is 0.87. Turning to RRIRTRPPRLPRPRPRPMFFPRP, the “shrunken log2 fold change” value is -0.204. Regarding RRIRERPPRLPRPRPRPESDPRP, the “shrunken log2 fold change” value was -0.0699.

In the case of RRIRQRPPRLPRPRPRPYVVPRP, the “shrunken log2 fold change” value is -0.102. Next, RRIRCRPPRLPRPRPRPRFTPRP: 0.066; RRIRPRPPRLPRPRPRPGASPRP: 0.344. Turning to RRIRDRPPRLPRPRPRPAYPPRP, the “shrunken log2 fold change” value was 0.147. With RRIRYRPPRLPRPRPRPMRIPRP, the “shrunken log2 fold change” value stood at 0.0121. Turning to RRIRTRPPRLPRPRPRPSAVPRP, the “shrunken log2 fold change” value is -0.0697.

RRIRSRPPRLPRPRPRPCFDPRP: the “shrunken log2 fold change” value was determined as 0.11. Take RRIRSRPPRLPRPRPRPFVCPRP: the “shrunken log2 fold change” value was -0.326. As for RRIRARPPRLPRPRPRPHKWPRP, the “shrunken log2 fold change” value was determined as 0.192. For RRIRHRPPRLPRPRPRPNHGPRP, the “shrunken log2 fold change” value was found to be 0.0424. As for RRIRVRPPRLPRPRPRPIFPPRP, the “shrunken log2 fold change” value amounted to 0.199. With RRIRKRPPRLPRPRPRPVDAPRP, the “shrunken log2 fold change” value is 0.493. RRIRKRPPRLPRPRPRPAVKPRP: the “shrunken log2 fold change” value is -0.104.

As for RRIRERPPRLPRPRPRPILHPRP, the “shrunken log2 fold change” value is -0.0255. Next, RRIRRRPPRLPRPRPRPNGTPRP: 0.219; RRIRTRPPRLPRPRPRPDVWPRP: 0.33; RRIRNRPPRLPRPRPRPAQFPRP: 0.0855.

As for RRIRNRPPRLPRPRPRPRQDPRP, the “shrunken log2 fold change” value was 0.0815. For RRIRERPPRLPRPRPRPQAHPRP, the “shrunken log2 fold change” value was -0.0188. In the case of RRIRRRPPRLPRPRPRPMSQPRP, the “shrunken log2 fold change” value is 0.247. Next, RRIRYRPPRLPRPRPRPGHWPRP: -0.135; RRIRNRPPRLPRPRPRPQRTPRP: -0.248; RRIRRRPPRLPRPRPRPCMMPRP: -0.292.

As to RRIRFRPPRLPRPRPRPFRKPRP, the “shrunken log2 fold change” value is -0.122. In the case of RRIRHRPPRLPRPRPRPQVSPRP, the “shrunken log2 fold change” value is -0.00697. To RRIRGRPPRLPRPRPRPKWVPRP belongs 0.233. With RRIRYRPPRLPRPRPRPSPGPRP, the “shrunken log2 fold change” value is -0.726. In the case of RRIRCRPPRLPRPRPRPMTEPRP, the “shrunken log2 fold change” value was -0.123.

On to RRIRWRPPRLPRPRPRPWGSPRP, for which the “shrunken log2 fold change” value is 0.0134.

As to RRIRPRPPRLPRPRPRPFRRPRP, the “shrunken log2 fold change” value stood at 0.0448.

With RRIRRRPPRLPRPRPRPDVNPRP, the “shrunken log2 fold change” value was 0.0369. To RRIRWRPPRLPRPRPRPACCPRP belongs 0.454; to RRIRMRPPRLPRPRPRPWALPRP, 0.0536; to RRIRARPPRLPRPRPRPPKWPRP, 0.732. As to RRIRMRPPRLPRPRPRPKQWPRP, the “shrunken log2 fold change” value is 0.895. On to RRIRNRPPRLPRPRPRPPWNPRP, for which the “shrunken log2 fold change” value was found to be 0.0711. On to RRIRHRPPRLPRPRPRPQQFPRP, for which the “shrunken log2 fold change” value was -0.217. RRIRGRPPRLPRPRPRPRWCPRP: the “shrunken log2 fold change” value is 0.351.

Take RRIRIRPPRLPRPRPRPEHRPRP: the “shrunken log2 fold change” value is -0.051.

As to RRIRLRPPRLPRPRPRPYKDPRP, the “shrunken log2 fold change” value was -0.269.

Consider RRIRRRPPRLPRPRPRPSITPRP, for which the “shrunken log2 fold change” value was -0.225. As for RRIRRRPPRLPRPRPRPFMYPRP, the “shrunken log2 fold change” value was -0.174. Turning to RRIRWRPPRLPRPRPRPGASPRP, the “shrunken log2 fold change” value is 0.793. As to RRIRPRPPRLPRPRPRPKDPPRP, the “shrunken log2 fold change” value turned out to be 0.165.

With RRIRNRPPRLPRPRPRPLDGPRP, the “shrunken log2 fold change” value is -0.0308. Regarding RRIRSRPPRLPRPRPRPAPFPRP, the “shrunken log2 fold change” value was determined as 0.201. Consider RRIRLRPPRLPRPRPRPLDDPRP, for which the “shrunken log2 fold change” value is -0.144. Next, RRIRERPPRLPRPRPRPEKNPRP: -0.126; RRIRERPPRLPRPRPRPIHRPRP: 0.0155; RRIRGRPPRLPRPRPRPYWKPRP: -0.0176. As to RRIRQRPPRLPRPRPRPHHAPRP, the “shrunken log2 fold change” value is -0.00332.

As to RRIRGRPPRLPRPRPRPPNGPRP, the “shrunken log2 fold change” value was found to be 0.534. In the case of RRIRRRPPRLPRPRPRPHIMPRP, the “shrunken log2 fold change” value was -0.435. Next, RRIRDRPPRLPRPRPRPACWPRP: 0.929; RRIRDRPPRLPRPRPRPRDWPRP: 0.619. For the sequence RRIRDRPPRLPRPRPRPELVPRP, the “shrunken log2 fold change” value came to 0.00724. Turning to RRIRARPPRLPRPRPRPPGAPRP, the “shrunken log2 fold change” value was 1.11. With RRIRWRPPRLPRPRPRPWIRPRP, the “shrunken log2 fold change” value was -0.124.

RRIRMRPPRLPRPRPRPDVNPRP: the “shrunken log2 fold change” value was determined as 0.0361. Turning to RRIRMRPPRLPRPRPRPTSVPRP, the “shrunken log2 fold change” value amounted to 0.172.

RRIRYRPPRLPRPRPRPDHWPRP: the “shrunken log2 fold change” value is -0.166. Turning to RRIRCRPPRLPRPRPRPQGMPRP, the “shrunken log2 fold change” value was determined as 0.00583. Regarding RRIRCRPPRLPRPRPRPIQHPRP, the “shrunken log2 fold change” value was -1.21. With RRIRFRPPRLPRPRPRPPGMPRP, the “shrunken log2 fold change” value was determined as 0.461. To RRIRTRPPRLPRPRPRPNNPPRP belongs -0.684; to RRIRTRPPRLPRPRPRPVMYPRP, 0.0131. RRIRGRPPRLPRPRPRPDFPPRP: the “shrunken log2 fold change” value is 0.414.

For the sequence RRIRWRPPRLPRPRPRPWMPPRP, the “shrunken log2 fold change” value was -0.127. As for RRIRVRPPRLPRPRPRPEHGPRP, the “shrunken log2 fold change” value is -0.219.

For the sequence RRIRIRPPRLPRPRPRPAWEPRP, the “shrunken log2 fold change” value is -0.143. RRIRCRPPRLPRPRPRPPPNPRP: the “shrunken log2 fold change” value was found to be 1.27. For the sequence RRIRARPPRLPRPRPRPGLRPRP, the “shrunken log2 fold change” value was 0.331.

As to RRIRKRPPRLPRPRPRPGACPRP, the “shrunken log2 fold change” value stood at 0.237. For the sequence RRIRARPPRLPRPRPRPFRHPRP, the “shrunken log2 fold change” value is -0.0722. Next, RRIRMRPPRLPRPRPRPMFNPRP: -0.343. In the case of RRIRARPPRLPRPRPRPINYPRP, the “shrunken log2 fold change” value was -0.239.

As for RRIRHRPPRLPRPRPRPNQFPRP, the “shrunken log2 fold change” value is -0.789.

Take RRIRNRPPRLPRPRPRPYGWPRP: the “shrunken log2 fold change” value is -0.012. For RRIRKRPPRLPRPRPRPRIPPRP, the “shrunken log2 fold change” value came to 0.11. Next, RRIRLRPPRLPRPRPRPCPNPRP: 0.0236; RRIRDRPPRLPRPRPRPTQTPRP: 0.121. With RRIRWRPPRLPRPRPRPDLDPRP, the “shrunken log2 fold change” value came out at 0.311. Consider RRIRPRPPRLPRPRPRPMNYPRP, for which the “shrunken log2 fold change” value was -0.736. For the sequence RRIRQRPPRLPRPRPRPMNPPRP, the “shrunken log2 fold change” value is -0.0843. RRIRNRPPRLPRPRPRPHPTPRP: the “shrunken log2 fold change” value was -0.0363. In the case of RRIRHRPPRLPRPRPRPLPFPRP, the “shrunken log2 fold change” value is -0.73. With RRIRYRPPRLPRPRPRPNVMPRP, the “shrunken log2 fold change” value stood at 0.0307. Turning to RRIRRRPPRLPRPRPRPWSHPRP, the “shrunken log2 fold change” value is -0.121. For the sequence RRIRHRPPRLPRPRPRPPTRPRP, the “shrunken log2 fold change” value is 0.429. RRIRLRPPRLPRPRPRPNIMPRP: the “shrunken log2 fold change” value is -0.602. Next, RRIRDRPPRLPRPRPRPQSKPRP: -0.0457; RRIRDRPPRLPRPRPRPKIAPRP: -0.0493. For the sequence RRIRRRPPRLPRPRPRPKHKPRP, the “shrunken log2 fold change” value worked out at 0.339. Next, RRIRNRPPRLPRPRPRPGHGPRP: -0.19. RRIRTRPPRLPRPRPRPTDPPRP: the “shrunken log2 fold change” value is -0.198. Regarding RRIRWRPPRLPRPRPRPDKYPRP, the “shrunken log2 fold change” value was -0.126. In the case of RRIRFRPPRLPRPRPRPIRWPRP, the “shrunken log2 fold change” value worked out at 0.0239. Turning to RRIRFRPPRLPRPRPRPKMRPRP, the “shrunken log2 fold change” value amounted to 0.223. Next, RRIRVRPPRLPRPRPRPICNPRP: -0.183; RRIRWRPPRLPRPRPRPSDLPRP: -0.175; RRIRERPPRLPRPRPRPVKFPRP: -0.02. In the case of RRIRRRPPRLPRPRPRPPGTPRP, the “shrunken log2 fold change” value amounted to 0.705. For RRIRPRPPRLPRPRPRPTVQPRP, the “shrunken log2 fold change” value came out at 0.182. As for RRIRIRPPRLPRPRPRPKTGPRP, the “shrunken log2 fold change” value is -0.388. In the case of RRIRKRPPRLPRPRPRPRWQPRP, the “shrunken log2 fold change” value stood at 0.189. For RRIRARPPRLPRPRPRPNYYPRP, the “shrunken log2 fold change” value is -0.414. As to RRIRQRPPRLPRPRPRPPRTPRP, the “shrunken log2 fold change” value was 0.669.

Take RRIRMRPPRLPRPRPRPGQNPRP: the “shrunken log2 fold change” value is 0.0316. To RRIRMRPPRLPRPRPRPAEYPRP belongs 0.0354; to RRIRHRPPRLPRPRPRPFTWPRP, -0.408; to RRIRPRPPRLPRPRPRPIDWPRP, 0.272. In the case of RRIRFRPPRLPRPRPRPPLKPRP, the “shrunken log2 fold change” value is 0.266.

With RRIRQRPPRLPRPRPRPRNSPRP, the “shrunken log2 fold change” value was -0.0108.

Source of the values: the supplement of paper PMC9112550, “Optimization of the antimicrobial peptide Bac7 by deep mutational scanning” (BMC Biology, 2022).
